One block for each binder: values may come before it.
Legend:
[1] = biological target: T1, carcinoembryonic antigen (CEA) (UniProt P06731 35-685, limits assumed); assay: competitive ELISA, CEA-coated wells (0.5 ug/well), competitor HRP-conjugated hMN-14 IgG (1 nM)
T1 construct: Coated on ELISA wells (0.5 ug/well), injected in BIAcore, or mixed in solution for SE-HPLC
T1 sequence (looked up): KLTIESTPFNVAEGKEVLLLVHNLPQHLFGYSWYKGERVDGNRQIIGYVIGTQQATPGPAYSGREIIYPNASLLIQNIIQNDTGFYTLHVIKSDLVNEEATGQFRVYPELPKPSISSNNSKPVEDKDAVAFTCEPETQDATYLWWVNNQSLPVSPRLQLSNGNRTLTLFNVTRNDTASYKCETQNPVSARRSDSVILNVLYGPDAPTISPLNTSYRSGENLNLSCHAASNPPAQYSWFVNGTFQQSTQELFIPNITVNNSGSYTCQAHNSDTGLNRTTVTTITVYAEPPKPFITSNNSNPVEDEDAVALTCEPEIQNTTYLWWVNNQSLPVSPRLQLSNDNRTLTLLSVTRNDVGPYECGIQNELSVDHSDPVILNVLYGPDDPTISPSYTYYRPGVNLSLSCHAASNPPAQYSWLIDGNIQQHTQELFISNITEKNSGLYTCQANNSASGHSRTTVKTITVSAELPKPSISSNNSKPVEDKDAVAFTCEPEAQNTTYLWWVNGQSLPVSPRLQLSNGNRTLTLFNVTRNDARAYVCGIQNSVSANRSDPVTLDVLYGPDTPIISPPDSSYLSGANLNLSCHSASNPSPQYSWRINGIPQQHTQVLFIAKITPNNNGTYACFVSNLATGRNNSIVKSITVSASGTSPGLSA
Protocol: HRP-conjugated hMN14 IgG (1 nM) was mixed with either BS14HP, BS1.5H (a bispecific diabody, monovalent for CEA and monovalent for HSG, derived from the same variable domains as BS14HP) or hMN14 F(ab′)₂ at concentrations ranging from 1-250 nM, prior to incubation in CEA-coated (0.5 μg/well) wells. The % inhibition is plotted vs. nM concentration of sample.
The CEA binding of BS14HP was analyzed in a competitive ELISA and compared to BS1.5H and hMN-14 F(ab′)₂, which have one and two CEA binding groups, respectively (FIG. 6). HRP-conjugated hMN-14 IgG (1 nM) was mixed with either BS14HP, BS1.5H or hMN-14 F(ab′)₂ at concentrations ranging from 1 to 250 nM, prior to incubation in CEA-coated (0.5 μg/well) wells. The IC₅₀ for BS14HP was 2.7 nM which is close to 2.0 nM for hMN14 F(ab′)₂.

[2] = biological target: T1, carcinoembryonic antigen (CEA); assay: BIAcore, hBS14 captured on HSG sensorchip, then CEA injected

B1: hMN-14 F(ab')2 (other)
VH: EVQLVESGGGVVQPGRSLRLSCSASGFDFTTYWMSWVRQAPGKGLEWIGEIHPDSSTINYAPSLKDRFTISRDNAKNTLFLQMDSLRPEDTGVYFCASLYFGFPWFAYWGQGTPVTVS
VL: DIQLTQSPSSLSASVGDRVTITCKASQDVGTSVAWYQQKPGKAPKLLIYWTSTRHTGVPSRFSGSGSGTDFTFTISSLQPEDIATYYCQQYSLYRSFGQGTKVEIKR
notes: F(ab')2 of humanized anti-CEA hMN-14, 100 kDa; The VH in the construct ends ...VTVS
IC50 [1]: 2 nM

B2: BS14HP (bispecific antibody)
chain 1: EAEAEFMEVQLVESGGDLVKPGGSLKLSCAASGFTFSIYTMSWLRQTPGKGLEWVATLSGDGDDIYYPDSVKGRFTISRDNAKNSLYLQMNSLRAEDTALYYCARVRLGDWDFDVWGQGTTVSVSSGGGGSDIQLTQSPSSLSASVGDRVTITCKASQDVGTSVAWYQQKPGKAPKLLIYWTSTRHTGVPSRFSGSGSGTDFTFTISSLQPEDIATYYCQQYSLYRSFGQGTKVEIKRLEGGGSEVQLVESGGGVVQPGRSLRLSCSASGFDFTTYWMSWVRQAPGKGLEWIGEIHPDSSTINYAPSLKDRFTISRDNAKNTLFLQMDSLRPEDTGVYFCASLYFGFPWFAYWGQGTPVTVSVDHHHHHH
chain 2: EAEAEFDIQLTQSPSSLSASVGDRVTITCKASQDVGTSVAWYQQKPGKAPKLLIYWTSTRHTGVPSRFSGSGSGTDFTFTISSLQPEDIATYYCQQYSLYRSFGQGTKVEIKRGGGQFMEVQLVESGGGVVQPGRSLRLSCSASGFDFTTYWMSWVRQAPGKGLEWIGEIHPDSSTINYAPSLKDRFTISRDNAKNTLFLQMDSLRPEDTGVYFCASLYFGFPWFAYWGQGTPVTVSGGGGSDIVMTQSPSSLAVSPGERVTLTCKSSQSLFNSRTRKNYLGWYQQKPGQSPKLLIYWASTRESGVPDRFSGSGSGTDFTLTINSLQAEDVAVYYCTQVYYLCTFGAGTKLELKRLDHHHHHH
notes: Non-covalent heterodimer with two CEA sites and one HSG site; The alpha-factor signal peptide is removed on secretion; also called bispecific trivalent heterodimer; hMN-14 x hMN-14 x 679 produced in Pichia pastoris
IC50 [1]: 2.7 nM

The next lines start with the values.

binding result [2]: binds
B3: hBS14 (bispecific antibody)
chain 1: MEVQLVESGGDLVKPGGSLKLSCAASGFTFSIYTMSWLRQTPGKGLEWVATLSGDGDDIYYPDSVKGRFTISRDNAKNSLYLQMNSLRAEDTALYYCARVRLGDWDFDVWGQGTTVSVSSGGGGSDIQLTQSPSSLSASVGDRVTITCKASQDVGTSVAWYQQKPGKAPKLLIYWTSTRHTGVPSRFSGSGSGTDFTFTISSLQPEDIATYYCQQYSLYRSFGQGTKVEIKRLEGGGSEVQLVESGGGVVQPGRSLRLSCSASGFDFTTYWMSWVRQAPGKGLEWIGEIHPDSSTINYAPSLKDRFTISRDNAKNTLFLQMDSLRPEDTGVYFCASLYFGFPWFAYWGQGTPVTVSVDHHHHHH
chain 2: MDIQLTQSPSSLSASVGDRVTITCKASQDVGTSVAWYQQKPGKAPKLLIYWTSTRHTGVPSRFSGSGSGTDFTFTISSLQPEDIATYYCQQYSLYRSFGQGTKVEIKRGGGQFMEVQLVESGGGVVQPGRSLRLSCSASGFDFTTYWMSWVRQAPGKGLEWIGEIHPDSSTINYAPSLKDRFTISRDNAKNTLFLQMDSLRPEDTGVYFCASLYFGFPWFAYWGQGTPVTVSGGGGSDIVMTQSPSSLAVSPGERVTLTCKSSQSLFNSRTRKNYLGWYQQKPGQSPKLLIYWASTRESGVPDRFSGSGSGTDFTLTINSLQAEDVAVYYCTQVYYLCTFGAGTKLELKRLDHHHHHH
notes: 79.4 kDa heterodimer of polypeptide 1 and polypeptide 2, produced in SP2/0, YB2/0 or NS0 cells; Bivalent for CEA, monovalent for HSG; also called bispecific trivalent heterodimer expressed in myeloma cells; hMN-14 x hMN-14 x 679

IC50 [1]: 10 nM
B4: BS1.5H (bispecific antibody)
chain 1: MEVQLVESGGDLVKPGGSLKLSCAASGFTFSIYTMSWLRQTPGKGLEWVATLSGDGDDIYYPDSVKGRFTISRDNAKNSLYLQMNSLRAEDTALYYCARVRLGDWDFDVWGQGTTVSVSSGGGGSDIQLTQSPSSLSASVGDRVTITCKASQDVGTSVAWYQQKPGKAPKLLIYWTSTRHTGVPSRFSGSGSGTDFTFTISSLQPEDIATYYCQQYSLYRSFGQGTKVEIKRLEHHHHHH
chain 2: MEVQLVESGGGVVQPGRSLRLSCSASGFDFTTYWMSWVRQAPGKGLEWIGEIHPDSSTINYAPSLKDRFTISRDNAKNTLFLQMDSLRPEDTGVYFCASLYFGFPWFAYWGQGTPVTVSGGGGSDIVMTQSPSSLAVSPGERVTLTCKSSQSLFNSRTRKNYLGWYQQKPGQSPKLLIYWASTRESGVPDRFSGSGSGTDFTLTINSLQAEDVAVYYCTQVYYLCTFGAGTKLELKRLEHHHHHH
